One series addresses N protein NTD (SARS-CoV-2, UniProt A0A6B9VLF5 43-174). Kind of series: fluorescence polarization. The conditions noted are these: protein: recombinant; tags: SUMO tag (pET-SUMO) cleaved; label: 5'-FITC; hairpin.
Another series concerns the target N protein CTD (SARS-CoV-2, UniProt A0A6B9VLF5 250-364). The series can be described thus: fluorescence polarization. The conditions noted are these: protein: recombinant; tags: SUMO tag (pET-SUMO) cleaved; chain copies: 2; label: 5'-FITC; hairpin.

B1: RNA1 (structured_RNA)
RNA: CACUCACUGUCUUUUUUGAUGGUAGAGU
Turning to B1, the binding result with N protein NTD and with N protein CTD was “no binding” throughout.

For the origin of these results see PMC9628480, “Discovery and structural characterization of chicoric acid as a SARS-CoV-2 nucleocapsid protein ligand and RNA binding disruptor”.
